Patent US9969998B2, “Compositions of adenosine deaminase-2 (ADA2), variants thereof and methods of using same” (Halozyme, Inc., priority 2014, dated 2018)

Legend:
[1] = Spectrophotometric adenosine deaminase assay at varying pH (pH optimum); assay type: biochemical; conditions: for pH optimum (highest deaminase activity): pH 5.5 to 8, 5 mM ADO
Protocol: Adenosine deaminase activity of rHuADA2 and variants at varying pH were assessed to determine the pH optimum of each. The adenosine deaminase activity was determined spectrophotometrically by direct measurement of changes in adenosine absorbance. […] During the deamination reaction, the absorbance of ADO decreases while that of INO increases with time. Since the dynamic changes in absorbance make it difficult to monitor activity at a single wavelength, the relative ADO activity was determined as a ratio of the ADO peak to isobestic point (i.e. the wavelength where ADO and INO have the same extinction coefficient). The isobestic point, which is 253 nm, remains unchanged and is concentration independent, so that it is the reference point to correct for volume or intensity discrepancies.
To construct the standard curve for ADO and INO, a series of solution mixtures in 0.001% Tween-20 containing different concentrations of ADO and INO were prepared. The total concentration of ADO and INO mix was 50 μM, in 1×PBS (10 mM phosphate, 137 mM NaCl, 2.7 mM KCl), pH 7.4. The samples were scanned with the wavelengths between 220 nm and 300 nm to determine the isosbestic point, where all spectra cross.
For performing the spectrophotometric adenosine deaminase assay of ADA2 and variants, a 2× solution containing 10 mM ADO in 100 mM potassium phosphate buffer (KPB), 0.1% Tween-20 at different pHs (i.e. 5.5, 6, 6.5, 6.75, 7, 7.25, 7.4, 7.75 and 8) were prepared. A separate 2× solution containing 2 μg/mL WT rHuADA2 or variants were prepared in the same 100 mM potassium phosphate buffer (KPB), 0.1% Tween-20 at the respective pH (i.e. 5.5, 6, 6.5, 6.75, 7, 7.25, 7.4, 7.75 and 8). An equal volume of the ADO solution and the ADA2 solution (wildtype or variants) were mixed to initiate reaction. At each time point (i.e. 1, 3, 5, 7, 9, 11, 13 and 15 min), a small aliquot (4 μl) was removed and diluted 50 times by adding to 196 μl 1×PBS, pH 7.4. The diluted samples were further diluted 2 fold (in duplicates) by adding 85 μl samples to 85 μl 1×PBS in a UV-transparent half area plate. The absorbance at 253 nm and 261 nm were measured of each diluted sample.
Adenosine concentration was determined using the A261/A253 ratio and the standard curve. Adenosine deaminase activity was measured by negative change in ADO concentration per min×100.

[2] = Thermal stability by differential scanning fluorimetry (DSF); assay type: physicochemical; conditions: 0.1-1 mg/mL protein
Summary of the method: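 Tm was taken as the midpoint of the unfolding transition. WT and variant rHuADA2, PEGylated or not, at 0.1-1 mg/mL were run in triplicate with ROX thermal shift dye, ramped 25 to 99° C at 0.05° C/s. Fluorescence read at 580 nm excitation and 623 nm emission.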

[3] = Adenosine deaminase (ADA) enzymatic activity assay kit; assay type: biochemical; conditions: for Adenosine deaminase activity mU/ml / Adenosine deaminase activity ΔA/min / % of WT activity: purified protein at 5 μg/mL; for % of WT activity: compared to WT-ADA2
[4] = protein diluted to 5 μg/mL, serially diluted 2 fold (Table 21)

% of WT activity [3] [%] | % activity vs. WT ([3]; relative to rHuADA2 WT (Table 21)) [%] | Molecule | Adenosine deaminase activity Δ [ADO]/min × (−100) ([1]; pH 5.5) | pH optimum (highest deaminase activity) [1] | Adenosine deaminase activity Δ [ADO]/min × (−100) ([1]; pH 6) | Adenosine deaminase activity Δ [ADO]/min × (−100) ([1]; pH 6.5) | Adenosine deaminase activity Δ [ADO]/min × (−100) ([1]; pH 6.75) | Adenosine deaminase activity Δ [ADO]/min × (−100) ([1]; pH 7) | Adenosine deaminase activity Δ [ADO]/min × (−100) ([1]; pH 7.25) | Adenosine deaminase activity Δ [ADO]/min × (−100) ([1]; pH 7.4) | Adenosine deaminase activity Δ [ADO]/min × (−100) ([1]; pH 7.75) | Adenosine deaminase activity Δ [ADO]/min × (−100) ([1]; pH 8) | Tm, melting temperature by DSF [2] [°C] | adenosine deaminase activity mU/mL ([3]; PEGylated and non-PEGylated forms (Table 23)) [mU/mL] | % of WT adenosine deaminase activity ([3]; Table 23) [%] | adenosine deaminase activity mU/mL [3, 4] [mU/mL] | ΔA/min, adenosine deaminase activity [3, 4] | Adenosine deaminase activity mU/ml [3] [mU/ml] | Adenosine deaminase activity ΔA/min [3]
100 | 100 | WT ADA2: wild type recombinant human adenosine deaminase 2 with FLAG tag, mature ADA2 SEQ ID NO:5 (protein, listed as Homo sapiens, FLAG tag; ADA2 mature protein) IDETRAHLLLKEKMMRLGGRLVLNTKEELANERLMTLKIAEMKEAMRTLIFPPSMHFFQAKHLIERSQVFNILRMMPKGAALHLHDIGIVTMDWLVRNVTYRPHCHICFTPRGIMQFRFAHPTPRPSEKCSKWILLEDYRKRVQNVTEFDDSLLRNFTLVTQHPEVIYTNQNVVWSKFETIFFTISGLIHYAPVFRDYVFRSMQEFYEDNVLYMEIRARLLPVYELSGEHHDEEWSVKTYQEVAQKFVETHPEFIGIKIIYSDHRSKDVAVIAESIRMAMGLRIKFPTVVAGFDLVGHEDTGHSLHDYKEALMIPAKDGVKLPYFFHAGETDWQGTSIDRNILDALMLNTTRIGHGFALSKHPAVRTYSWKKDIPIEVCPISNQVLKLVSDLRNHPVATLMATGHPMVISSDDPAMFGAKGLSYDFYEVFMGIGGMKADLRTLKQLAMNSIKYSTLLESEKNTFMEIWKKRWDKFIADVATK | 21.11 | approximately 6.5 | 22.06 | 33.77 | 29.76 | 28.70 | 24.47 | 21.77 | 6.65 | 3.58 | 67.1 | 121.6 | 100 | 78 | 33.9 | 78 | 33.9 ΔA/min
211 |  | S265N: ADA2 variant SEQ ID NO:54 (protein, human ADA2 S262N, mature numbering) IDETRAHLLLKEKMMRLGGRLVLNTKEELANERLMTLKIAEMKEAMRTLIFPPSMHFFQAKHLIERSQVFNILRMMPKGAALHLHDIGIVTMDWLVRNVTYRPHCHICFTPRGIMQFRFAHPTPRPSEKCSKWILLEDYRKRVQNVTEFDDSLLRNFTLVTQHPEVIYTNQNVVWSKFETIFFTISGLIHYAPVFRDYVFRSMQEFYEDNVLYMEIRARLLPVYELSGEHHDEEWSVKTYQEVAQKFVETHPEFIGIKIIYNDHRSKDVAVIAESIRMAMGLRIKFPTVVAGFDLVGHEDTGHSLHDYKEALMIPAKDGVKLPYFFHAGETDWQGTSIDRNILDALMLNTTRIGHGFALSKHPAVRTYSWKKDIPIEVCPISNQVLKLVSDLRNHPVATLMATGHPMVISSDDPAMFGAKGLSYDFYEVFMGIGGMKADLRTLKQLAMNSIKYSTLLESEKNTFMEIWKKRWDKFIADVATK | 24.61 | 7.25 | 31.59 | 41.30 | 44.46 | 45.16 | 50.99 | 45.81 | 25.16 | 3.70 | 60.8 |  |  |  |  | 164.8 | 71.7 ΔA/min
